Laboratory results reported in FireProtDB (doi:10.1074/jbc.273.32.19982).

B1: DNA-binding protein HU wild type, P0A3H0 (protein)
chain: MNKTELINAVAETSGLSKKDATKAVDAVFDSITEALRKGDKVQLIGFGNFEVRERAARKGRNPQTGEEMEIPASKVPAFKPGKALKDAVK
B2: DNA-binding protein HU 1 wild type, P08821 (protein)
chain: MNKTELINAVAEASELSKKDATKAVDSVFDTILDALKNGDKIQLIGFGNFEVRERSARKGRNPQTGEEIEIPASKVPAFKPGKALKDAVAGK

Settings: pH 7, Thermal, CD, Sodium phosphate 5 mM, NaCl 0.2 M, reversible: yes, whole UniProt chain shown

Protein | Tm (Geobacillus stearothermophilus) | unfolding enthalpy (van 't Hoff) (Geobacillus stearothermophilus) | Tm (Bacillus subtilis (strain 168))
B1 | 63.9 °C | 72.8 kcal/mol | 
B2 |  |  | 48.6 °C
